Results as given in the Human Domainome abundance scans (Beltran et al. 2025).

B1: Tyrosine-protein kinase Lck, residues 63 to 120; numbered along this chain, P06239 (parent)
chain: DNLVIALHSYEPSHDGDLGFEKGEQLRILEQSGEWWKAQSLTTGQEGFIPFNFVAKAN

Variants of: B1
Experiment: abundance fitness (aPCA) (normalised: wild type 0, dead -1); higher = more abundant; growth selection in yeast, the domain comes from the species named
Details: Homo sapiens

Abundance fitness of substitutions, site by site:
P12: R -0.705 | I -0.506 | T -0.529 | H -0.846 | Q -1 | K -0.471 | L -0.913 | D -0.439 | V -0.717 | Y -0.525 | N -0.557 | F -1.08 | S -0.366 | E -0.755 | C -0.387 | G -0.497
I5: M -0.26
S9: L -0.84 | K 0.017 | T -0.046 | C -0.25 | M -0.473 | I -0.888 | Y -0.619 | Q -0.276 | F -0.798 | G -0.116 | P -0.166 | E -0.218 | H -0.254 | A -0.235 | R -0.11 | N 0.045 | V -0.676 | W -0.923
L7: C -0.357 | Y -0.54 | D -0.486 | V -0.161 | Q -0.131 | P -0.38 | A -0.249 | H -0.429 | I -0.079 | S -0.21 | N -0.602 | K -0.232 | E -0.217 | M -0.097 | T -0.224 | F -0.705 | R -0.298
V4: G -0.431 | L -0.04 | T -0.325 | A 0.123 | M -0.173 | R -0.29 | H -0.073 | F -0.054 | N -0.727
H14: D -0.219 | E -0.051 | F -0.187 | C -0.033 | A 0.027
Y10: M -0.444 | T -0.604 | P -0.673 | S -0.662 | G -0.717 | W -0.019 | K -0.113 | A -0.671 | L -0.488 | N -0.587 | H -0.087 | R -0.289 | C -0.415 | F -0.241 | V -0.485 | D -0.511 | I -0.619
L3: Y -0.113 | H -0.486 | R -0.178 | C -0.273 | V -0.212 | P -0.74 | G -0.768 | Q -0.122 | M -0.094 | W -0.232 | F -0.304 | D -0.503 | I 0.091 | S -0.343 | T -0.019 | N -0.159
A6: M -0.637 | Q -0.84 | P -0.897 | H -0.756 | I -0.772 | G -0.212 | S -0.348 | C -0.217 | F -0.907 | L -0.845 | K -0.933 | D -0.907 | V -0.556 | Y -0.99 | N -0.956 | E -0.857 | W -1.2 | T -0.113
H8: D 0.003 | K 0.285 | Q -0.086 | P -0.79 | R 0.034 | G -0.295 | N -0.001 | I -0.262 | V -0.227 | S -0.078 | A -0.067 | L -0.285 | T -0.012 | E -0.096 | C -0.131
E11: Q -0.199 | D -0.116 | I -0.177 | R -0.145 | H -0.156 | L -0.164 | M -0.409 | F -0.214 | V -0.05 | C -0.21 | P -0.409 | G -0.431 | W -0.435 | A -0.137 | K 0.206 | Y -0.363 | N -0.171 | S -0.16 | T 0.064
S13: E -0.096 | D -0.062 | P -0.358 | Y -0.18 | Q -0.034 | K 0.171 | N -0.061 | C -0.047 | V -0.097 | M -0.026 | H -0.174 | G -0.251 | A -0.177 | T 0.047 | I -0.215 | F -0.412
